US7223834

System: 41-mer peptide substrate (41-PS), QTVTWPDMELPLPRNITEGE-ARGSVILTVKPIFEVSPSPL-(BIOTINYL)K

aggrecan degrading metallo protease (ADMP)
cleavage of 41-PS to the 21-mer product, HPLC assay: Effect of incubation time was evaluated and found to be linear over the timecourse of the assay
